Measured values: publication PMC9482650, “Quantitative fragmentomics allow affinity mapping of interactomes” (Nature Communications, 2022)

Legend:
Test in all cases: holdup assay
Parameters in all cases: key: below the threshold = too weak to quantify, mostly under pKd 3.1 to 4
Details in all cases: plain residues with an end cap or a label only (N-terminal biotin on a linker: ado-ado)
MPDZ_12, O75970 = molecular target: T1, MPDZ_12, O75970
T1 sequence (O75970 1857-1958, limits assumed, looked up): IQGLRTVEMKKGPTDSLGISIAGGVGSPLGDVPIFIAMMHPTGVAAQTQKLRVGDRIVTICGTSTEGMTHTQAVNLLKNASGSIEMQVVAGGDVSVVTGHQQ

Inadl_9, Q8NI35 = molecular target: Inadl_9, Q8NI35
FRMPD4, Q14CM0 = molecular target: FRMPD4, Q14CM0
RAPGEF6, Q8TEU7 = molecular target: T2, RAPGEF6, Q8TEU7
T2 sequence (Q8TEU7 525-625, limits assumed, looked up): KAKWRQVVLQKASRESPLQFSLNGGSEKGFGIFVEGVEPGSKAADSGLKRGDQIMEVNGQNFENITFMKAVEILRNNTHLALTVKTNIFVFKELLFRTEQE

DLG2_2, Q15700 = molecular target: DLG2_2, Q15700
LNX1_2, Q8TBB1 = molecular target: LNX1_2, Q8TBB1
DLG4_2, P78352 = molecular target: DLG4_2, P78352
GRIP1_5, Q9Y3R0 = molecular target: T3, GRIP1_5, Q9Y3R0
T3 sequence (Q9Y3R0 568-668, limits assumed, looked up): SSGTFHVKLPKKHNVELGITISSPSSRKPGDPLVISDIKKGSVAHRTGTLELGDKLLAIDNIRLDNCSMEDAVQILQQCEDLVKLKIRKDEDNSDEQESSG

Inadl_3, Q8NI35 = molecular target: Inadl_3, Q8NI35
DLG1_1, Q12959 = molecular target: DLG1_1, Q12959
APBA3_1, O96018 = molecular target: T4, APBA3_1, O96018
T4 sequence (O96018 389-490, limits assumed, looked up): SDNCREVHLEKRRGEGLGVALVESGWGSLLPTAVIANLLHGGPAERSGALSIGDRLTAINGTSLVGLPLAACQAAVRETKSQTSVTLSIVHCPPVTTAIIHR

Inadl_1, Q8NI35 = molecular target: Inadl_1, Q8NI35
PDZRN4_1, Q6ZMN7 = molecular target: PDZRN4_1, Q6ZMN7
DLG4_3, P78352 = molecular target: DLG4_3, P78352
AHNAK1, Q09666 = molecular target: AHNAK1, Q09666
SHANK1, Q9Y566 = molecular target: T5, SHANK1, Q9Y566
T5 sequence (Q9Y566 658-767, limits assumed, looked up): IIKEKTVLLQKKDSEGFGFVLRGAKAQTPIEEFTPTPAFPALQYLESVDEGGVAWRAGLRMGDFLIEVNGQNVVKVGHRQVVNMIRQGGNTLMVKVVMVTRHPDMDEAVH

LIMK2, P53671 = molecular target: LIMK2, P53671
LNX1_1, Q8TBB1 = molecular target: LNX1_1, Q8TBB1
APBA2_2, Q99767 = molecular target: T6, APBA2_2, Q99767
T6 sequence (Q99767 654-744, limits assumed, looked up): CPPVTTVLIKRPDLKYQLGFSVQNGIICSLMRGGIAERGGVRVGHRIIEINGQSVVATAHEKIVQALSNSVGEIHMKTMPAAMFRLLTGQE

LNX2_2, Q8N448 = molecular target: T7, LNX2_2, Q8N448
T7 sequence (Q8N448 334-432, limits assumed, looked up): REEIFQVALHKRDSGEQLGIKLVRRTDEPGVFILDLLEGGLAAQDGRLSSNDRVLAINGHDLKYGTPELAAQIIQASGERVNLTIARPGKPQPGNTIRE

MAGI2_5, Q86UL8 = molecular target: MAGI2_5, Q86UL8
MAGI2_6, Q86UL8 = molecular target: MAGI2_6, Q86UL8
PTPN3, P26045 = molecular target: PTPN3, P26045
PDZD7_3, Q9H5P4 = molecular target: T8, PDZD7_3, Q9H5P4
T8 sequence (Q9H5P4 857-944, limits assumed, looked up): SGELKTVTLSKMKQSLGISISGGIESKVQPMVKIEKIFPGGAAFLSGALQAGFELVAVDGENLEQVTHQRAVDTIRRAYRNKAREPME

NHERF3_4, Q5T2W1 = molecular target: T9, NHERF3_4, Q5T2W1
T9 sequence (Q5T2W1 373-468, limits assumed, looked up): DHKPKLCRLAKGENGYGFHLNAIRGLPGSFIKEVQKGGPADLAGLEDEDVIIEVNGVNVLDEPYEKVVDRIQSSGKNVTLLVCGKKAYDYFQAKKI

HTRA4, P83105 = molecular target: T10, HTRA4, P83105
T10 sequence (P83105 378-476, limits assumed, looked up): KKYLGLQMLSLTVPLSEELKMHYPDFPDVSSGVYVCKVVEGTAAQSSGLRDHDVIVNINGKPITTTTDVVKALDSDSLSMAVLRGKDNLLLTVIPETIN

PTPN13_1, Q12923 = molecular target: T11, PTPN13_1, Q12923
T11 sequence (Q12923 1088-1188, limits assumed, looked up): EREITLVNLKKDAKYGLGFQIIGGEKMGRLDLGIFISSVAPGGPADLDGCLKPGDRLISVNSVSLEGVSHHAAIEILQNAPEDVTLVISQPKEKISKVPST

DLG4_2, P78352, sequence (P78352 155-259): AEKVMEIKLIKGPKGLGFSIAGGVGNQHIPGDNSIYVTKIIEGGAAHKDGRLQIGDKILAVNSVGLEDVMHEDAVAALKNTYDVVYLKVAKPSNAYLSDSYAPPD
Inadl_9, Q8NI35, sequence (Q8NI35 1530-1615): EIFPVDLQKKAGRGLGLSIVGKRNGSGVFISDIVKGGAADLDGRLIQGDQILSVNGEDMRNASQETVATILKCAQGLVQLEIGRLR
LNX1_2, Q8TBB1, sequence (Q8TBB1 371-470): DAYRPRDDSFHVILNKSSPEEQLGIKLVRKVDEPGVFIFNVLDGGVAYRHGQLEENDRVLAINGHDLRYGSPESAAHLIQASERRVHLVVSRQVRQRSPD
Inadl_1, Q8NI35, sequence (Q8NI35 113-229): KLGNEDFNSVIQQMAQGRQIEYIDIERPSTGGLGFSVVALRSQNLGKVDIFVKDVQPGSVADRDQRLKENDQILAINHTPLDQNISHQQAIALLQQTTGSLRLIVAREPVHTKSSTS
MAGI2_5, Q86UL8, sequence (Q86UL8 915-1017): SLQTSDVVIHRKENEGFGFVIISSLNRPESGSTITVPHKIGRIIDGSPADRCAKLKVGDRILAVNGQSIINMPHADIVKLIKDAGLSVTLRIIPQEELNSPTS
PDZRN4_1, Q6ZMN7, sequence (Q6ZMN7 213-318): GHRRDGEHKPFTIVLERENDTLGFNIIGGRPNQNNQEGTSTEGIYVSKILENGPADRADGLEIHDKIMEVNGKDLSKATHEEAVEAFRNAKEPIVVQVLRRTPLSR
FRMPD4, Q14CM0, sequence (Q14CM0 67-160): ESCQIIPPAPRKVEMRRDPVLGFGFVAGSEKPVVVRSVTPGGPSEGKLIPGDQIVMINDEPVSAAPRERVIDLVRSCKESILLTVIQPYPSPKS
DLG2_2, Q15700, sequence (Q15700 189-283): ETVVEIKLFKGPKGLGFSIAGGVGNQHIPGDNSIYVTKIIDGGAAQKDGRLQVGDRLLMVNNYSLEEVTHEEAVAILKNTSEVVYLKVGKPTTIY
MAGI2_6, Q86UL8, sequence (Q86UL8 1141-1229): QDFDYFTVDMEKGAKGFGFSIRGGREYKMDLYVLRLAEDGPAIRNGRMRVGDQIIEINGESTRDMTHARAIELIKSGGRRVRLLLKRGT
Inadl_3, Q8NI35, sequence (Q8NI35 359-469): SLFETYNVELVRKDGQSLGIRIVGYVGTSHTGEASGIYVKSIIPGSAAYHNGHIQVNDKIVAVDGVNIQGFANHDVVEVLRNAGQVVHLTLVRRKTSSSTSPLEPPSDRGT
LNX1_1, Q8TBB1, sequence (Q8TBB1 261-371): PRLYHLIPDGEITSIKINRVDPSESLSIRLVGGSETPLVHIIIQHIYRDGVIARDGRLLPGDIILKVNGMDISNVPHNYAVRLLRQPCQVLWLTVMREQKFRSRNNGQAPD
LIMK2, P53671, sequence (P53671 143-248): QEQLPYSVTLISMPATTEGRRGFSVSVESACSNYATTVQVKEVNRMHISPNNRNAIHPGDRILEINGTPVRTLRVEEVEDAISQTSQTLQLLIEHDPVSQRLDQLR
PTPN3, P26045, sequence (P26045 505-587): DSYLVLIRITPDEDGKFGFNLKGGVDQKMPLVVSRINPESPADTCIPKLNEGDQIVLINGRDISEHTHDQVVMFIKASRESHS
DLG4_3, P78352, sequence (P78352 306-403): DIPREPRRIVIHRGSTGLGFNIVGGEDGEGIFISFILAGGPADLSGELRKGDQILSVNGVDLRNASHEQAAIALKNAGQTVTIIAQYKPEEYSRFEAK
AHNAK1, Q09666, sequence (Q09666 4-100): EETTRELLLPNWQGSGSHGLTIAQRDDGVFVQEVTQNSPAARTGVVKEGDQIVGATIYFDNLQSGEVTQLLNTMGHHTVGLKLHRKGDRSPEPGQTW

| pKd (MPDZ_12, O75970) | pKd (Inadl_9, Q8NI35) | pKd (FRMPD4, Q14CM0) | pKd (RAPGEF6, Q8TEU7) | pKd (DLG2_2, Q15700) | pKd (LNX1_2, Q8TBB1) | pKd (DLG4_2, P78352) | pKd (GRIP1_5, Q9Y3R0) | pKd (Inadl_3, Q8NI35) | pKd (DLG1_1, Q12959) | pKd (APBA3_1, O96018) | pKd (Inadl_1, Q8NI35) | pKd (PDZRN4_1, Q6ZMN7) | pKd (DLG4_3, P78352) | pKd (AHNAK1, Q09666) | pKd (SHANK1, Q9Y566) | pKd (LIMK2, P53671) | pKd (LNX1_1, Q8TBB1) | pKd (APBA2_2, Q99767) | pKd (LNX2_2, Q8N448) | other results | Binder |
| --- | --- | --- | --- | --- | --- | --- | --- | --- | --- | --- | --- | --- | --- | --- | --- | --- | --- | --- | --- | --- | --- |
| below the threshold | 3.73 | 3.58 | below the threshold | 4.68 | below the threshold | 5.01 | below the threshold | 4.08 | 4.45 | below the threshold | below the threshold | 3.72 | below the threshold | below the threshold | below the threshold | below the threshold | 4.06 | below the threshold | 4.3 | pKd (MAGI2_5, Q86UL8): 5.32; pKd (MAGI2_6, Q86UL8): 4.16; pKd (PTPN3, P26045): 4.61; pKd (PDZD7_3, Q9H5P4): 4.54; pKd (NHERF3_4, Q5T2W1): below the threshold; pKd (HTRA4, P83105): 3.83; pKd (PTPN13_1, Q12923): below the threshold | DPAESMESLV [PTPRG, P23470] |
| below the threshold | 3.66 | below the threshold | below the threshold | below the threshold | below the threshold | below the threshold | below the threshold | 4.49 | below the threshold | below the threshold | 3.91 | below the threshold | 3.5 | below the threshold | below the threshold | below the threshold | below the threshold | below the threshold | 3.74 | pKd (MAGI2_5, Q86UL8): below the threshold; pKd (MAGI2_6, Q86UL8): below the threshold; pKd (PTPN3, P26045): below the threshold; pKd (PDZD7_3, Q9H5P4): below the threshold; pKd (NHERF3_4, Q5T2W1): 3.66; pKd (HTRA4, P83105): 3.91; pKd (PTPN13_1, Q12923): below the threshold | DFLSTFHIRI [CIB2, O75838] |
